B1: gp44 protein of the T4 clamp loader (natural protein, bacteriophage T4)
chain: MITVNEKEHILEQKYRPSTIDECILPAFDKETFKSITSKGKIPHIILHSPSPGTGKTTVAKALCHDVNADMMFVNGSDCKIDFVRGPLTNFASAASFDGRQKVIVIDEFDRSGLAESQRHLRSFMEAYSSNCSIIITANNIDGIIKPLQSRCRVITFGQPTDEDKIEMMKQMIRRLTEICKHEGIAIADMKVVAALVKKNFPDFRKTIGELDSYSSKGVLDAGILSLVTNDRGAIDDVLESLKNKDVKQLRALAPKYAADYSWFVGKLAEEIYSRVTPQSIIRMYEIVGENNQYHGIAANTELHLAYLFIQLACEMQWK
B2: gp62 protein of the T4 clamp loader (natural protein, bacteriophage T4)
chain: SLFKDDIQLNEHQVAWYSKDWTAVQSAADSFKEKAENEFFEIIGAINNKTKCSIAQKDYSKFMVENALSQFPECMPAVYAMNLIGSGLSDEAHFNYLMAAVPRGKRYGKWAKLVEDSTEVLIIKLLAKRYQVNTNDAINYKSILTKNGKLPLVLKELKGLVTDDFLKEVTKNVKEQKQLKKLALEW

Assays:
crystal structure = target: the molecule itself; experiment: crystal structure
[1] = target: B1; experiment: crystal structure

| Binder | binding result (crystal structure) | binding result [1] |
| --- | --- | --- |
| B1 | binds |  |
| B2 |  | binds |

Reference: PMC3281585 (Science (New York, N.Y.), 2011)
